Experimental data as given in US20210380703A1.
Changes are numbered by the printed parent chain.

B1: 370_D11 (antibody, V domains shown)
VH: EVQLLESGGGLVQPGGSLRLSCAASGFTFDSYSMNWVRQAPGKGLEWVSGINYNGGYTGYADSVKGRFTISRDNSKNTLYLQMNSLRAEDTAVYYCARSANWHDTALDYWGQGTLVTVSS
VL: DIQMTQSPSSLSASVGDRVTITCRASQSIVSYLNWYQQKPGKAPKLLIYAATSRASGVPSRFSGSGSGTDFTLTISSLQPEDFATYYCQQSYDTPLTFGGGTKVEIK
B2: 370_E09 (antibody, V domains shown)
VH: B1 VH with S31D, Y32S, N35H, G50N, R98K
VL: B1 VL with V30L, L33V, L47V, D93E, T94L
B3: 370_F05 (antibody, V domains shown)
VH: B1 VH with D30S, S33G, G55S, G59S
VL: B1 VL with L33V, L47V, D93E
B4: 371_A07 (antibody, V domains shown)
VH: B1 VH with D30S, S31D, G50N, T58K, G59S
VL: B1 VL with V30L, L47V, A51T, T94L
B5: 371_A03 (antibody, V domains shown)
VH: B1 VH with D30S, S31D, S33G, S49A, G50N
VL: B1 VL with V30L, L47V, A51T, D93E, T94S
B6: 370_F10 (antibody, V domains shown)
VH: B1 VH with D30S, S49A, G59S
VL: B1 VL with L47V, D93N, T94S
B7: 370_G06 (antibody, V domains shown)
VH: B1 VH with D30S, S31D, S33G, N35H, G50S, G59S
VL: B1 VL with V30L, L33V, L47V, Y92D, D93N
B8: 370_G03 (antibody, V domains shown)
VH: B1 VH with D30S, S49A, G50N
VL: B1 VL with V30L, S31T, L33V, L47V, A51T, D93N, T94N
B9: 371_A06 (antibody, V domains shown)
VH: B1 VH with D30S, S33G, S49A, G59S
VL: B1 VL with V30L, S31T, L47V, A55H, T94S
B10: 370_H01 (antibody, V domains shown)
VH: B1 VH with D30S, G55S, T58K
VL: B1 VL with V30I, A51V
B11: 370_H09 (antibody, V domains shown)
VH: B1 VH with D30S, S33G, S49A, G50N, G59S
VL: B1 VL with L33V, T94N
B12: 370_G02 (antibody, V domains shown)
VH: B1 VH with D30S, S31D, S49A, G50N, T58K
VL: B1 VL with A55H, T94S
B13: 370_E03 (antibody, V domains shown)
VH: B1 VH with D30S, S33G, G50S, T58K
VL: B1 VL with V30L, S31T, L47V, A50Y, T52S, S53N, T94S
B14: 370_E06 (antibody, V domains shown)
VH: B1 VH with D30S, S33G, G55S, T58K, G59S
VL: B1 VL with V30L, L47V, A51T, R54L
B15: 370_G09 (antibody, V domains shown)
VH: B1 VH with D30S, S33G, S49A, T58K, G59S
VL: B1 VL with V30L, L33V, L47V, D93E, T94S
B16: 370_G11 (antibody, V domains shown)
VH: B1 VH with D30S, S49A, G50S, G55S, G59S, A106H
VL: B1 VL with L47V, D93S, T94L
B17: 370_G10 (antibody, V domains shown)
VH: B1 VH with D30S, S31D, S33G, G55S, G59S
VL: B1 VL with V30S, A50V, A51V, T52N, S53N, D93E, T94N
B18: 370_F07 (antibody, V domains shown)
VH: B1 VH with G50N, T58K
VL: B1 VL with V30L, D93N, T94L

target: Human Fc (human); assay: ELISA, negative control

| optical density [OD] | Binder |
| --- | --- |
| 0.34 | B1 |
| 0.338 | B2 |
| 0.406 | B3 |
| 0.336 | B4 |
| 0.354 | B5 |
| 0.441 | B6 |
| 0.356 | B7 |
| 0.421 | B8 |
| 0.337 | B9 |
| 0.436 | B10 |
| 0.348 | B11 |
| 0.388 | B12 |
| 0.361 | B13 |
| 0.375 | B14 |
| 0.393 | B15 |
| 0.529 | B16 |
| 0.315 | B17 |
| 0.384 | B18 |
